Experimental findings from article PMC6713926, “Structural Basis for Properdin Oligomerization and Convertase Stimulation in the Human Complement System” (Frontiers in Immunology, 2019) are described below.

For this experiment, the target named is T1, FPht, monomeric FP head-tail protein from co-expression of FPh and FPt (human).
T1 construct: properdin (FP), human, TB-TSR3 head fragment (FPh), expressed with the endogenous FP signal peptide; the head fragment of FPc is residues 28-255; properdin (FP), human, TSR4-6 tail fragment (FPt); the tail fragment of FPc is residues 256-469; also called FPht WT; WT FPht
T1 chain 1: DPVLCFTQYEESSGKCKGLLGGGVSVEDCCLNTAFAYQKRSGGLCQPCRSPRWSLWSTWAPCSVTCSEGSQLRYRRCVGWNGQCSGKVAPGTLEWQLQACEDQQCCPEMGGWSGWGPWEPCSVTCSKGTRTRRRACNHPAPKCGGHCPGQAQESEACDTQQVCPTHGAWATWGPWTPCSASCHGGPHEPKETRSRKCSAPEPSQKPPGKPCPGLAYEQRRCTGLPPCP
T1 chain 2: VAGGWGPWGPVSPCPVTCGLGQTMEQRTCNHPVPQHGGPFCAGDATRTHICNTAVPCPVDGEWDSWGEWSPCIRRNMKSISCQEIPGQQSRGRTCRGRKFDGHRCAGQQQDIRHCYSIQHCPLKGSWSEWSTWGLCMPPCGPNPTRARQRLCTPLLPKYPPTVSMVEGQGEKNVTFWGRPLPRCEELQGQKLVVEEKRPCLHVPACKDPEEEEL
Description: BLI; hFPNb1 amine-coupled on AR2G sensors, FPht (20 μg/mL) loaded on it; C3b, FB variants or C3b + FB at 50 μg/mL each; 30°C; 20 mM MES pH 6.0, 100 mM NaCl, 0.05% Tween, 1 mg/mL BSA, 5 mM MgCl2; FB signal subtracted. Conditions: both partners purified.

B1: hFPNb1, FP specific non-inhibitory nanobody (VHH)
VHH: QVQLVESGGGLVQAGGSLRLSCAASERTFTIYAMGWFRQAPGKEREFVAAISRSGENTDYADSVKGRFTISRDNNKNTISLQMNSLKPEDTAVYYCAAGRAILVHTTKKEYDHWGQGTQVTVSS
notes: llama nanobody selected by phage display against FPc
Consider B1, for which the binding result was “binds”.
